Experimental data taken from doi:10.1101/2023.05.02.539157, “Toxic anti-phage defense proteins inhibited by intragenic antitoxin proteins” (bioRxiv, 2023).
Positions count from the first letter of the chain named.

Columns and labels:
[1] = target: T1, RpnAL (full-length RpnA, wild type, in the native RpnALS complex) (E. coli, UniProt P31667 1-292); test: SEC-MALS; multi-angle light scattering coupled with size exclusion chromatography of purified RpnAS and of the purified RpnALS complex; conditions: both partners purified
T1 construct: source: E. coli, WT rpnA gene in an overexpression vector, C-terminally tagged intein fusion, purified together with RpnAS
T1 sequence (looked up): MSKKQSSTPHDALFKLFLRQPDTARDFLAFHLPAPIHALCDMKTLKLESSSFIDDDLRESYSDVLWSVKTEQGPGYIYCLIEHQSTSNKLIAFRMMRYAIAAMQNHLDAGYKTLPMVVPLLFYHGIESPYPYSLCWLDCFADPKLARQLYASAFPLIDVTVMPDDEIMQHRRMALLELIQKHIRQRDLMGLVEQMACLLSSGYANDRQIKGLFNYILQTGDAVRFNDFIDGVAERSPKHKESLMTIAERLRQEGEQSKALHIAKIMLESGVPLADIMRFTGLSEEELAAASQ

[2] = target: the molecule itself; test: as above
[3] = target: T2, RpnAL* (RpnA_(K240R+E241D+M244L)) (E. coli, UniProt P31667 1-292, K240R | E241D | M244L); test: SEC; Superdex 200 column; individually purified proteins alone and mixed, and the native co-purified RpnALS complex; peak fractions checked by SDS-PAGE; conditions: both partners purified
T2 construct: source: E. coli, overexpressed as C-terminally tagged intein fusion protein, purified
T2 sequence (looked up): T1 sequence (looked up) with K240R, E241D, M244L

B1: RpnAS (natural protein, E. coli, UniProt P31667 244-292, looked up)
chain: MTIAERLRQEGEQSKALHIAKIMLESGVPLADIMRFTGLSEEELAAASQ
notes: also called RpnS of RpnA; small C-terminal protein of RpnA
stoichiometry N [1]: 1 RpnAS per RpnAL (2:2) | stoichiometry N [2]: 2 | binding result [3]: binds
